Test [1] concerns the target MDM2 (In-house, 41 kD) (UniProt Q00987). Description: competitive fluorescence polarization on MDM2 against FAM-labeled linear peptide; grade, scale in paragraph 462.
The target in test [2] is T1, MDMX (In-house, 40 kD) (UniProt O15151).
T1 sequence (looked up): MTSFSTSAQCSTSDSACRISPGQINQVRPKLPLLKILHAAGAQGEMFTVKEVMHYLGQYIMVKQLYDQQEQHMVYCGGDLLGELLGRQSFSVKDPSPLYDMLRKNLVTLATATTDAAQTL
Kind of test: competitive fluorescence polarization on MDMX against FAM-labeled linear peptide; grade, scale in paragraph 462.

Test [3] deals with T2, MDMX (In-house, 40 kD) (UniProt O15151 1-120, limits assumed).
T2 construct: The construct used is unknown; also called MDM4
T2 sequence (looked up): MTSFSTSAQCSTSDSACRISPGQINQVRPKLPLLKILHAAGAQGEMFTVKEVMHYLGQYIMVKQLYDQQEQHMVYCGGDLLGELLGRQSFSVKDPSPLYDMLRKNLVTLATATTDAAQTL
Description: IC50 (MDMX) grade; competitive FP vs FAM-labeled linear peptide; + = >1000 nM.
Description: (§1) Dilute MDMX (In-house, 40 kD) into FP buffer (High salt buffer-200 mM Nacl, 5 mM CHAPS, pH 7.5.) to make 300 nM (2×) working stock solution. […] Then, dilute from 100 µM to 10 µM with water (dilution 1:10) and then dilute with FP buffer from 10 µM to 40 nM (dilution 1:250). […] Keep the diluted FAM labeled peptide in the dark until use. […] Dilute 10 mM (in 100% DMSO) with DMSO to 5 mM (dilution 1:2). Then, dilute from 5 mM to 500 µM with H₂O (dilution 1:10) and then dilute with FP buffer from 500 µM to 20 µM (dilution 1:25). […] Add 10 µl of 10 nM (4×) of FAM labeled peptide into each well and incubate for 3 hr to read.

Test [4] deals with T3, MDM2 (In-house, 41 kD) (UniProt Q00987 1-125, limits assumed).
T3 construct: Only 'In-house, 41 kD' is said of the protein used in the fluorescence polarization assays; also called HDM2
Kind of test: competitive fluorescence polarization on MDM2 against FAM-labeled linear peptide; grade, scale in paragraph 462.
Description: Then, dilute from 100 µM to 10 µM with water (dilution 1:10) and then dilute with FP buffer from 10 µM to 40 nM (dilution 1:250). This is the working solution which will be a 10 nM concentration in well (dilution 1:4). Keep the diluted FAM labeled peptide in the dark until use. […] Dilute 10 mM (in 100% DMSO) with DMSO to 5 mM (dilution 1:2). Then, dilute from 5 mM to 500 µM with H₂O (dilution 1:10) and then dilute with FP buffer from 500 µM to 20 µM (dilution 1:25). […] Add 10 µl of 10 nM (4×) of FAM labeled peptide into each well and incubate for 3 hr to read.

The target of test [5] is T4, MDMX (In-house, 40 kD) (UniProt O15151 1-120, limits assumed).
T4 construct: Only 'MDMX (In-house, 40 kD)' is said of the protein in the FP assays; also called MDM4
T4 sequence (looked up): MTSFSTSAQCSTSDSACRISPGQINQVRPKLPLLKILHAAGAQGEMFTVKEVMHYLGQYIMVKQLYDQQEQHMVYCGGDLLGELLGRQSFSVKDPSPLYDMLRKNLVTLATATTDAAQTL
Description: competitive FP vs FAM labeled linear peptide; column Ki (MDMX); + = >1000 nM by the table's scale.
Description: as §1

For test [6], the target named is T4, MDMX (In-house, 40 kD). Kind of test: competitive FP vs FAM labeled linear peptide; column IC50 (MDMX); + = >1000 nM by the table's scale.
Description: as §1
Test [7] addresses T5, MDMX (In-house, 40 kD) (UniProt O15151 1-120, limits assumed).
T5 construct: Only 'In-house, 40 kD' is said of the protein used in the fluorescence polarization assays; also called MDM4
T5 sequence (looked up): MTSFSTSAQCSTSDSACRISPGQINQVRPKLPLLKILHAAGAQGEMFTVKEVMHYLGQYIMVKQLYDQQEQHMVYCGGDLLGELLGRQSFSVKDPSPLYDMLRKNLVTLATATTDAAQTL
Kind of test: competitive fluorescence polarization on MDMX against FAM-labeled linear peptide; grade, scale in paragraph 462.
Description: as §1

The target in test [8] is T2, MDMX (In-house, 40 kD). Kind of test: Ki (MDMX) grade; competitive FP vs FAM-labeled linear peptide; + = >1000 nM.
Description: as §1

“And” between values parts separate entries of the source, which are not always exact repeats. Equal values may be shown once. Bridges are numbered along the chain shown (N, C = ends). [ ]: non-standard residue; d: D form. The star is where a group is joined. 5‑TAMRA = CN(C)c1ccc2c(-c3ccc(C(=O)*)cc3C(=O)[O-])c3ccc(N(C)C)cc3[o+]c2c1; NMeY = CN[C@@H](Cc1ccc(O)cc1)C(=O)O; R8 = C=CCCCCCC[C@@](C)(N)C(=O)O; Cba = N[C@@H](CC1CCC1)C(=O)O; hLeu = CC(C)CC[C@H](N)C(=O)O; S5 = C=CCCC[C@](C)(N)C(=O)O; Decac = not defined here; Nle = CCCC[C@H](N)C(=O)O; βAla = NCCC(=O)O Some results are limits rather than exact numbers.

MDM2 (In-house, 41 kD) (UniProt Q00987), sequence (Q00987 1-125 limits assumed): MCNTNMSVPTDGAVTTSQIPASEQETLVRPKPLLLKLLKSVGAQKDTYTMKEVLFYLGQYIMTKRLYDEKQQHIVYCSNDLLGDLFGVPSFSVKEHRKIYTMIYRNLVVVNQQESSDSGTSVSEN
T3 sequence (Q00987 1-125 limits assumed): as above

Turning to “SP756, Ac-t$s8wyanf4CF3e$r511r-NH2 (peptide)”, the IC50 was > 10 nM and < 100 nM with MDM2 (In-house, 41 kD) [1]; over 1000 nM with MDMX (In-house, 40 kD) [2].
With “SP754, Ac-tawya$r5f4CF3ek$r51r-NH2 (peptide)”, the IC50 with MDM2 (In-house, 41 kD) [1] is > 100 nM and < 1000 nM; with MDMX (In-house, 40 kD) [2] it was over 1000 nM.
On to “SP753, Ac-tawy$r5nf4CF3e$r511r-NH2 (peptide)”, for which the IC50 with MDM2 (In-house, 41 kD) [1] is > 10 nM and < 100 nM; in the test with MDMX (In-house, 40 kD) [2], over 1000 nM.
“SP758, Ac-tawya$s8f4CF3e1d1r$r5a-NH2 (peptide)”: the IC50 is > 10 nM and < 100 nM with MDM2 (In-house, 41 kD) [1]; over 1000 nM with MDMX (In-house, 40 kD) [2].
Take “SP757, Ac-tawy$s8nf4CF3ek11$r5a-NH2 (peptide)”: the IC50 with MDM2 (In-house, 41 kD) [1] is under 10 nM; in the test with MDMX (In-house, 40 kD) [2], over 1000 nM.
The matching figures for “SP755, Ac-tawyanf4CF3e$r511r$r5a-NH2 (peptide)”: under 10 nM and over 1000 nM.
On to “SP752, Ac-t$r5wya$r5f4CF3e1d1r-NH2 (peptide)”, for which the IC50 with MDM2 (In-house, 41 kD) [1] is > 100 nM and < 1000 nM; with MDMX (In-house, 40 kD) [2] it was over 1000 nM.

B1: SP323 (peptide)
peptide: Ac-LTF[R8]AYWAQ[hLeu][S5]AA[Nle]AA-NH2
modifications: staple 4-11
notes: Peptidomimetic macrocycle (stapled p53-derived peptide)
Turning to B1, the IC50 with MDMX (In-house, 40 kD) [3] was over 1000 nM.

B2: SP433, Ac-LTF$r8EYWCou7QCba$SAA-NH2 (peptide)
peptide: LTFAEYWXQAASAA
modifications: not fully specified; N-terminal acetyl; $r8 (alpha-Me R8-octenyl-alanine) at 4 crosslinked to $ (alpha-Me S5-pentenyl-alanine) at 11; Cou7 at 8 (structure given only as a drawing); Cba (cyclobutyl alanine) at 10; C-terminal amide
notes: stapled peptidomimetic macrocycle
In the test with MDM2 (In-house, 41 kD) [4], B2 displayed a Ki of at most 10 nM.

B3: SP384 (peptide)
peptide: Ac-LTF[R8]A[NMeY]WAQL[S5]AA[Nle]A-NH2
modifications: staple 4-11; not fully specified
notes: Stapled peptidomimetic macrocycle, single isomer iso2; also called Ac-LTF$r8ANmYWAQL$AANleA-NH2
Turning to B3, in the test with MDMX (In-house, 40 kD) [5], the Ki was over 1000 nM. Also, the IC50 in the test with MDMX (In-house, 40 kD) [6] is over 1000 nM.

B4: SP712, Ac-LTF$r8HYWAQCba$SAA-NH2 (iso2) (peptide)
peptide: Ac-LTF[R8]HYWAQ[Cba][S5]SAA-NH2
modifications: staple 4-11; also: single isomer iso2
notes: stapled peptidomimetic macrocycle, isomer iso2
With B4, the Ki is at most 10 nM with MDM2 (In-house, 41 kD) [4] and at most 10 nM in the test with MDMX (In-house, 40 kD) [7].

B5: SP713, Ac-LTF$r8SYWAQCba$SAA-NH2 (iso2) (peptide)
peptide: Ac-LTF[R8]SYWAQ[Cba][S5]SAA-NH2
modifications: staple 4-11; also: single isomer iso2
notes: as for B4
Regarding B5, the Ki with MDM2 (In-house, 41 kD) [4] was at most 10 nM; in the test with MDMX (In-house, 40 kD) [7], at most 10 nM.

B6: SP612, Ac-LTF$r8EYWACitL$AAAAAa-NH2 (peptide)
peptide: LTFAEYWAXLAAAAAAA
modifications: not fully specified; N-terminal acetyl; $r8 (alpha-Me R8-octenyl-alanine) at 4 crosslinked to $ (alpha-Me S5-pentenyl-alanine) at 11; Cit (citrulline) at 9; D-alanine at 17; C-terminal amide
notes: as for B2
With B6, the Ki with MDM2 (In-house, 41 kD) [4] was at most 10 nM.

B7: SP282 (peptide)
peptide: Decac-LTF[R8]EYWAQ[hLeu][S5]SAA-NH2
modifications: staple 4-11; reading uncertain
notes: as for B1
In the case of B7, in the test with MDMX (In-house, 40 kD) [8], the Ki was over 1000 nM. The IC50 in the test with MDMX (In-house, 40 kD) [3] is over 1000 nM.

B8: SP686, 5-TAMRA-BaLTF$r8EYWAQCba$SAA-NH2 (peptide)
peptide: {5‑TAMRA}-[βAla]LTF[R8]EYWAQ[Cba][S5]SAA-NH2
modifications: staple 5-12
SMILES: CC(C)C[C@H](NC(=O)CCNC(=O)c1ccc(-c2c3ccc(N(C)C)cc3[o+]c3cc(N(C)C)ccc23)c(C(=O)[O-])c1)C(=O)N[C@H](C(=O)N[C@@H](Cc1ccccc1)C(=O)N[C@]1(C)CCCCCCC=CCCC[C@@](C)(C(=O)N[C@@H](CO)C(=O)N[C@@H](C)C(=O)N[C@@H](C)C(N)=O)NC(=O)[C@H](CC2CCC2)NC(=O)[C@H](CCC(N)=O)NC(=O)[C@H](C)NC(=O)[C@H](Cc2c[nH]c3ccccc23)NC(=O)[C@H](Cc2ccc(O)cc2)NC(=O)[C@H](CCC(=O)O)NC1=O)[C@@H](C)O
notes: stapled peptidomimetic macrocycle with fluorescent label
On to B8, for which, in the test with MDM2 (In-house, 41 kD) [4], the Ki is at most 10 nM.
